Experimental findings from article PMC11655355 (Nature, 2024) are described below.

The target in assay [1] is RCD1–SRO–TAF4 (RST) domain from RCD1, RCD1-RST_(499–572) (UniProt Q8RY59). The assay can be described thus: ITC. Background: In ITC the heat of successive injections is recorded.
The target of assay [2] is T1, RCD1–SRO–TAF4 (RST) domain from RCD1, RCD1-RST_(499–572) (UniProt Q8RY59 499-572).
T1 sequence (looked up): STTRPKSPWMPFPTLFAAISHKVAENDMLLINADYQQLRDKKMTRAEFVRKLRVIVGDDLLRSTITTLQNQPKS
The assay can be described thus: ITC.

In assay [1], “D-ANAC013_(254–274), synthetic D-peptide (from UniProt F4IED2 254-274)” came in with a fold difference in Kd between L- and D-enantiomer of 500 fold.

For “D-ANAC046_(319–338), synthetic D-peptide (from UniProt Q9SQQ6 319-338)”, the fold difference in Kd between L- and D-enantiomer in assay [1] is 15 fold.

“D-DREB2A_(255–272), synthetic D-peptide (from UniProt O82132 255-272)” yielded a fold difference in Kd between L- and D-enantiomer in assay [1] of 72 fold.

Regarding SSDMFDVDELLRDLNGDD (peptide, UniProt O82132 255-272, looked up) [L-DREB2A_(255–272), synthetic peptide], the binding result in assay [2] is “binds”.
